From the supplement of paper PMC11246515
± gives the standard deviation of the averaged measurements.

Assay: total protein half-life in vivo (active degradation + dilution); higher = more stable protein
[1] = E. coli NCM3722 delta-clpP delta-lon delta-hslV, growth: N-lim chemostat, doubling time 6 h
[2] = E. coli NCM3722 delta-clpP, growth: N-lim chemostat, doubling time 6 h
[3] = E. coli NCM3722 delta-hslV, growth: N-lim chemostat, doubling time 6 h
[4] = E. coli NCM3722 delta-lon, growth: N-lim chemostat, doubling time 6 h
[5] = E. coli NCM3722 delta-smpB, growth: N-lim chemostat, doubling time 6 h
[6] = wild type E. coli NCM3722, growth: C-lim chemostat, doubling time 3 h
[7] = wild type E. coli NCM3722, growth: C-lim chemostat, doubling time 6 h
[8] = wild type E. coli NCM3722, growth: C-lim chemostat, doubling time 12 h
[9] = wild type E. coli NCM3722, growth: N-lim chemostat, doubling time 6 h
[10] = wild type E. coli NCM3722, growth: N-lim chemostat, doubling time 12 h
[11] = wild type E. coli NCM3722, growth: P-lim chemostat, doubling time 6 h
[12] = wild type E. coli NCM3722, growth: P-lim chemostat, doubling time 12 h

Sequence | total protein half-life in vivo [1] | total protein half-life in vivo [2] | total protein half-life in vivo [3] | total protein half-life in vivo [4] | total protein half-life in vivo [5] | total protein half-life in vivo [6] | total protein half-life in vivo [7] | total protein half-life in vivo [8] | total protein half-life in vivo [9] | total protein half-life in vivo [10] | total protein half-life in vivo [11] | total protein half-life in vivo [12]
MKQYLIAPSILSADFARLGEDTAKALAAGADVVHFDVMDNHYVPNLTIGPMVLKSLRNYGITAPIDVHLMVKPVDRIVPDFAAAGASIITFHPEASEHVDRTLQLIKENGCKAGLVFNPATPLSYLDYVMDKLDVILLMSVNPGFGGQSFIPQTLDKLREVRRRIDESGFDIRLEVDGGVKVNNIGEIAAAGADMFVAGSAIFDQPDYKKVIDEMRSELAKVSHE [P0AG07] | 5.23 ± 0.28 h | 4.58 ± 0.58 h | 5.6 ± 1.7 h | 4.69 ± 0.12 h | 4.27 ± 0.7 h | 3.2 ± 0.21 h | 5.43 ± 0.99 h | 11.4 ± 0.82 h | 4.84 ± 0.16 h | 7.52 ± 0.15 h | 5.72 ± 0.56 h | 12 ± 0.16 h
MKRAFIMVLDSFGIGATEDAERFGDVGADTLGHIAEACAKGEADNGRKGPLNLPNLTRLGLAKAHEGSTGFIPAGMDGNAEVIGAYAWAHEMSSGKDTPSGHWEIAGVPVLFEWGYFSDHENSFPQELLDKLVERANLPGYLGNCHSSGTVILDQLGEEHMKTGKPIFYTSADSVFQIACHEETFGLDKLYELCEIAREELTNGGYNIGRVIARPFIGDKAGNFQRTGNRHDLAVEPPAPTVLQKLVDEKHGQVVSVGKIADIYANCGITKKVKATGLDALFDATIKEMKEAGDNTIVFTNFVDFDSSWGHRRDVAGYAAGLELFDRRLPELMSLLRDDDILILTADHGCDPTWTGTDHTREHIPVLVYGPKVKPGSLGHRETFADIGQTLAKYFGTSDMEYGKAMF [P0A6K6] | 4.63 ± 0.33 h | 4.5 ± 0.27 h | 4.39 ± 0.2 h | 4.1 ± 0.049 h | 3.41 ± 0.21 h | 2.41 ± 0.5 h | 4.68 ± 0.54 h | 9 ± 0.31 h | 4 ± 0.39 h | 6.61 ± 0.31 h | 3.91 ± 0.25 h | 7.26 ± 0.64 h
MKRAPLITGLLLISTSCAYASSGGCGADSTSGATNYSSVVDDVTVNQTDNVTGREFTSATLSSTNWQYACSCSAGKAVKLVYMVSPVLTTTGHQTGYYKLNDSLDIKTTLQANDIPGLTTDQVVSVNTRFTQIKNNTVYSAATQTGVCQGDTSRYGPVNIGANTTFTLYVTKPFLGSMTIPKTDIAVIKGAWVDGMGSPSTGDFHDLVKLSIQGNLTAPQSCKINQGDVIKVNFGFINGQKFTTRNAMPDGFTPVDFDITYDCGDTSKIKNSLQMRIDGTTGVVDQYNLVARRRSSDNVPDVGIRIENLGGGVANIPFQNGILPVDPSGHGTVNMRAWPVNLVGGELETGKFQGTATITVIVR | – | 5.21 h | 6.04 ± 0.24 h | – | – | 3.66 h | 6.25 ± 0.34 h | 11.5 h | 5.8 h | 14 h | 5.42 h | 13.3 h
MKRFSLAILALVVATGAQAASEKVEMNLVTSQGVGQSIGSVTITETDKGLEFSPDLKALPPGEHGFHIHAKGSCQPATKDGKASAAESAGGHLDPQNTGKHEGPEGAGHLGDLPALVVNNDGKATDAVIAPRLKSLDEIKDKALMVHVGGDNMSDQPKPLGGGGERYACGVIK [P0AGD1] | 5.72 ± 1.6 h | 6.84 ± 0.29 h | 6.36 ± 0.53 h | 6.86 ± 0.16 h | 5.11 ± 0.17 h | 2.81 ± 0.45 h | 6.27 ± 0.81 h | 10 ± 1.8 h | 6.57 ± 0.63 h | 11.8 ± 1.3 h | 5.69 ± 0.66 h | 11 ± 0.99 h
MKRLIVGISGASGAIYGVRLLQVLRDVTDIETHLVMSQAARQTLSLETDFSLREVQALADVTHDARDIAASISSGSFQTLGMVILPCSIKTLSGIVHSYTDGLLTRAADVVLKERRPLVLCVRETPLHLGHLRLMTQAAEIGAVIMPPVPAFYHRPQSLDDVINQTVNRVLDQFAITLPEDLFARWQGA [P0AG03] | 5.38 ± 0.31 h | 4.35 ± 0.49 h | 4.3 ± 0.56 h | 4.77 ± 0.86 h | 4.678 ± 0.041 h | 3.22 ± 0.35 h | 6.52 ± 0.94 h | 11.2 ± 1.5 h | 4.09 ± 0.35 h | 7.54 ± 1 h | 5.53 ± 0.22 h | 11.9 ± 0.56 h
MKRNLLSSAIIVAIMSLGLTGCDDKKAETETLPPANSQPAAPAPEAKPTEAPVAKAEAKPETPAQPVVDEQAVFDEKMDVYIKCYNKLQIPVQRSLARYADWLKDFKQGPTGEERTVYGIYGISESNLAECEKGVKSAVALTPALQPIDGVAVSYIDAAVALGNTINEMDKYYTQENYKDDAFAKGKTLHQTFLKNLEAFEPVAESYHAAIQEINDKRQLAELKNIEEREGKTFHYYSLAVMISAKQINNLISQDKFDAEAAMKKVSELETLVAQAKEADKGGMNFSFINSAGQYQLEAKKYVRRIRDKVPYSDWDKEQLQDANSSWMVEDSFPRALREYNEMVDDYNSLR | 6 h | – | – | – | 5.67 ± 0.5 h | – | 6.58 h | – | 6.45 h | 10.5 h | 5.81 ± 0.094 h | 10 h
MKRNTKIALVMMALSAMAMGSTSAFAHGGHGMWQQNAAPLTSEQQTAWQKIHNDFYAQSSALQQQLVTKRYEYNALLAANPPDSSKINAVAKEMENLRQSLDELRVKRDIAMAEAGIPRGAGMGMGYGGCGGGGHMGMGHW [P0AAA9] | – | – | – | – | – | – | – | – | – | 13 h | – | –
MKRQKRDRLERAHQRGYQAGIAGRSKEMCPYQTLNQRSQWLGGWREAMADRVVMA [P0AFW2] | 0.535 h | 0.588 h | 0.382 h | 0.441 h | 0.472 ± 0.2 h | – | 0.0712 h | 0.0514 ± 0.073 h | 0.352 h | 0.686 ± 0.26 h | – | 1.16 h
